Laboratory results as given in patent US20180362629A1 (ZOETIS BELGIUM S A, published 2018).
Substitutions are numbered along the chain they refer to. Several values for one entry are separate records, joined by “and”; a condition that tells them apart may be missing. Equal entries are not always repeated.

T1: recombinant canine β NGF (canine, UniProt Q29074 110-229 (pig entry))
T1 chain: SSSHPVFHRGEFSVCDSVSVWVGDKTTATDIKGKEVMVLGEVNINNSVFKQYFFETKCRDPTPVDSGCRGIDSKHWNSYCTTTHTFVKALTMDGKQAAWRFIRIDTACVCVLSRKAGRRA

B1: 3F7 hybridoma supernatant (antibody, mouse IgG1, V domains shown)
VH: QVQLKESGPGLVAPSQSLSITCTVSGFSLTGYNINWVRQPPGKGLEWLGMIWGYGDTDYNSALKSRLSISKDNSKSQVFLKMNSLQTDDTARYYCARDHYGGNDWYFDVWGTGTTVTVSS
VL: DIQMTQTTSSLSASLGDRVTITCRASQDITNYLNWYQQKPDGTVKLLIYYTSRLHSGVPSRFSGSGSGTDYSLTISNLDQEDIATYFCQQGKTLPRTFGGGTKLEIKR
notes: Tested as supernatant of the hybridoma before subcloning; mouse IgG1 kappa; also called ML130-3F7.4A8
B2: 73.2 Canine IgG1/k (antibody, V domains shown)
VH: QVQLVQSAAEVKKPGASVKVSCKASGYTFTNYWMHWVQQAPGAGLEWIGRIDPYGGGTKHNEKFKRRATVTADKSTSTAYMELSNLRTEDTAVYYCTRSGYDYYFDVWGQGTLVTVSS
VL: DIQMTQTPLSLSASPGESASITCRASENIYSFLAWHRQKPGQSPQLLVYNANTLAEGVPSRFSGSGSGTQFTLRISRVEDEDAGLYYCQHHFGTPFTFGQGTKLEIKR
notes: The variable/constant junction was not checked; also called PR-1313520; PR-13113520
B3: 23F1 hybridoma supernatant (antibody, mouse IgG1, V domains shown)
VH: EVQLQQSGAELVKPGASVKLSCTASGFNIKDTYIYWVKQRPEQGLEWIGRIDPANGNTIYASKFQGKATITADTSSNTAYMQLSSLTSGDTAVYYCAGYGYYAYWGQGTTLTVSS
VL: DVVLTQTPLSLPVNIGDQASISCKSTKSLLNGDGFTYLDWYLQKPGQSPQLLIYLVSNRFSGVPDRFSGSGSGTDFTLKISRVEAEDLGVYYCFESNYLFTFGSGTKLEMKR
notes: Tested as supernatant of the hybridoma before subcloning; mouse IgG1 kappa; also called ML129-23F1.4G3
B4: 21D4 hybridoma supernatant (antibody, mouse IgG1, V domains shown)
VH: B3 VH with T69S
VL: B3 VL
notes: Tested as supernatant of the hybridoma before subcloning; mouse IgG1 kappa; also called ML129-21D4.4A11
B5: 20B10 hybridoma supernatant (antibody, mouse IgG2b, V domains shown)
VH: EVHLVESGGGLVKPGGFLILSCAASGFTFSDYYMFWIRQTPGKRLEWVATISDGGSYTYYTDNVKGRFTISRDNVKNNLYLQMSHLKSADTAMYYCARDWSDSEGFAYWGQGTLVTVSA
VL: DVLMTQTPLSLPVSLGDQASISCRSSQSIVQSNGNTYLEWYLQKPGQSPKLLIYKVSNRFSGVPDRFSGSGSGTDFTLKISRVEAEDLGVYYCFQGSHVPFTFGSGTKLEIKR
notes: Tested as supernatant of the hybridoma before subcloning; mouse IgG2b kappa; also called ML129-20B10.3F4
B6: 14A9 hybridoma supernatant (antibody, mouse IgG1, V domains shown)
VH: EVQLVESGGGAVKPGGSLTLSCAASGFTFSNHYMYWVRQTPEKRLEWVASISDGGAYTFYPDTVKGRFTISRDNVNNNLYLQMRHLKSEDTAMYYCTREESANNGFAFWGQGTLVTVSA
VL: B5 VL with V30L, Q31H, K50N, K55R, S97A
notes: Tested as supernatant of the hybridoma before subcloning; mouse IgG1 kappa; also called ML130-14A9.5B12
B7: 82.4 Canine IgG1/k (antibody, V domains shown)
VH: EVQLQESGPGLVKPSQTLSLTCTVSGGSVTGYNINWIRQRPDRGLEWMGMIWGYGDTDYNSALKSRISITKDNTKSQLFLQLTSTTTEDTAVYYCARDHYGGNDWYFDVWGQGTLVTVSS
VL: DIQMTQTPLSLSASPGESASISCRASQDITNYLNWYRQKPGQSPKLLIYYTSRLHSGVPSRFSGSGSGTDYTLRISRVEDEDAGLYFCQQGKTLPRTFGQGTKLEIKR
notes: The variable/constant junction was not checked; also called PR-1313521; PR-13113521

Experiments:
human β NGF [1] = biological target: T2, human β NGF (human, UniProt P01138 122-241, biotinylated in the TrkA inhibition ELISA (sites not given)); experiment: TrkA inhibition ELISA; biotin-hNGF bound to rat TrkA/Fc; supernatant 1-fold
T2 sequence (P01138 122-241 limits assumed): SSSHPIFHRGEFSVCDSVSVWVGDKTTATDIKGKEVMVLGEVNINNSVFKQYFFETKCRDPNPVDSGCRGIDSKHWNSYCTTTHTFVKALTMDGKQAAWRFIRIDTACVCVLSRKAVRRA
Procedure: (§1) The plates were washed three times with PBS/Tween. The plates were blocked with 200 μl/well of 2% milk in PBS for 1 hour at room temperature. The plates were washed three times as above. Rat TrkA/Fc chimera (R&D Systems, catalog #1056-TK) was added at 1 μg/ml (50 μl/well) in PBS/0.1% BSA and then incubated for 1 hour at room temperature. Biotinylated human NGF was titered and pre-incubated with anti-NGF antibody supernatants diluted 1-fold, 5-fold, and 25-fold, or purified anti-NGF mAbs diluted to 0.08, 0.4, 2, or 10 μg/ml for 1 hour at room temperature on a plate shaker. The negative control was unrelated conditioned supernatant. The positive control was sera from a mouse immunized with NGF. The plates were washed and then 50 μl of each biotinylated NGF/Ab mix was added to the appropriate wells. The plates were incubated for 1 hour at room temperature. The plates were washed. […] The plates were incubated for 30 min at room temperature. The plates were washed. 50 μl of TMB (Invitrogen, cat #00-2023) was added and the reaction was stopped using 2N H₂SO₄ (VWR, cat # BDH3500-1). The absorbance at 450 nm was read on a Spectromax 2E plate reader (Molecular Devices), and the absorbance readings are shown in Table 5 The numerical value indicates binding of biotinylated human β NGF to rat TrkA/Fc chimera.

human β NGF [2] = biological target: T2, human β NGF; experiment: TrkA inhibition ELISA; biotin-hNGF bound to rat TrkA/Fc; supernatant 5-fold
Procedure: as §1

human β NGF [3] = biological target: T2, human β NGF; experiment: TrkA inhibition ELISA; biotin-hNGF bound to rat TrkA/Fc; supernatant 25-fold
Procedure: as §1

recombinant canine β NGF [4] = biological target: T1, recombinant canine β NGF; experiment: cell-based or functional assay
recombinant canine β NGF [5] = biological target: T1, recombinant canine β NGF; experiment: SPR (Biacore T100), antibody captured on goat anti-canine IgG, canine NGF injected; Expt 1
Procedure: (§2) Purified mouse/canine chimeric antibodies and caninized antibodies were analyzed for affinity to canine NGF using a Biacore T100 instrument. Goat anti Canine IgG (Southern Biotech) was immobilized at 5000-10000 RU on a CM5 chip using an amine coupling procedure according to the manufacturer's instructions (Biacore). […] The association rate was monitored for 5 min and the dissociation rate was monitored for 10-20 min. The chip surface was regenerated using 50-75 ul 10 mM glycine pH 1.5 at a flow rate of 50-100 ul/min. Data was analyzed using Biaevaluation T100 software version 2.0.2, software, GE Healthcare Life Sciences (Piscataway, N.J.). Overall affinity parameters established for mouse/canine chimeric antibodies is summarized in Table 22 and for caninized antibodies in Table 23. […] The overall KDs of the mouse/canine anti-NGF mAbs range from about 1300 pM to 1.6 pM. […] The overall KDs of the caninized anti-NGF mAbs range from about 42 pM to 1.2 pM.

recombinant canine β NGF [6] = biological target: T1, recombinant canine β NGF; experiment: SPR (Biacore T100), antibody captured on goat anti-canine IgG, canine NGF injected; Expt 2
Procedure: as §2

recombinant canine β NGF [7] = biological target: T1, recombinant canine β NGF; experiment: SPR (Biacore T100), antibody captured on goat anti-canine IgG, canine NGF injected; Average
Procedure: as §2

Molecule	absorbance at 450 nm (human β NGF [1])	absorbance at 450 nm (human β NGF [2])	absorbance at 450 nm (human β NGF [3])	IC50, canine NGF-induced TF-1 cell proliferation (70 pM canine NGF) (recombinant canine β NGF [4])	Kd (recombinant canine β NGF [5])	koff (recombinant canine β NGF [5])	kon (recombinant canine β NGF [5])	Kd (recombinant canine β NGF [6])	koff (recombinant canine β NGF [6])	kon (recombinant canine β NGF [6])	Kd (recombinant canine β NGF [7])	koff (recombinant canine β NGF [7])	kon (recombinant canine β NGF [7])
unrelated conditioned supernatant (negative control)	0.465 OD450 and 0.372 OD450 and 0.386 OD450	0.456 OD450 and 0.336 OD450 and 0.388 OD450	0.462 OD450 and 0.318 OD450 and 0.386 OD450	–	–	–	–	–	–	–	–	–	–
B1	0.056 OD450	0.083 OD450	0.149 OD450	–	–	–	–	–	–	–	–	–	–
B2	–	–	–	0.422 nM	0.044 nM	0.00028 s⁻¹	6.3e+06 M⁻¹ s⁻¹	0.042 nM	0.00029 s⁻¹	6.9e+06 M⁻¹ s⁻¹	0.043 nM	0.00029 s⁻¹	6.6e+06 M⁻¹ s⁻¹
B3	0.108 OD450	0.14 OD450	0.276 OD450	–	–	–	–	–	–	–	–	–	–
B4	0.133 OD450	0.242 OD450	0.404 OD450	–	–	–	–	–	–	–	–	–	–
B5	0.166 OD450	0.2 OD450	0.289 OD450	–	–	–	–	–	–	–	–	–	–
B6	0.121 OD450	0.208 OD450	0.376 OD450	–	–	–	–	–	–	–	–	–	–
B7	–	–	–	0.016 nM	0.0012 nM	1.1e-05 s⁻¹	8.6e+06 M⁻¹ s⁻¹	0.0015 nM	1.2e-05 s⁻¹	7.7e+06 M⁻¹ s⁻¹	0.0014 nM	1.2e-05 s⁻¹	8.2e+06 M⁻¹ s⁻¹
